Source: paper PMC10455477, “The Roles of Coenzyme A Binding Pocket Residues in Short and Medium Chain Acyl-CoA Synthetases” (Life, 2023)
Numbering of substitutions follows the chain as printed. In names and notes the source's numbering stands.

Tests used:
[1] = test system: T1, AcsMt; test: hydroxamate assay, A540; assay type: biochemical, Methanothermobacter thermautotrophicus; settings: acetate and MgATP saturating; 65 °C; apparent Km
T1 construct: gene acs; recombinant, E. coli Rosetta Blue (DE3) placI; His-Trap purified
Source text: hydroxamate assay, A540 on AcsMt

[2] = target: T2, MacsMa (Methanosarcina acetivorans, UniProt Q8TLW1); test: inhibition of propionyl-adenylate synthetase activity; assay type: biochemical; settings: read-out: % inhibition at 15 mM
T2 construct: gene MA_2912; recombinant, E. coli Rosetta Blue (DE3) placI; His-Trap purified

[3] = substrate: CC(C)(COP(=O)(O)OP(=O)(O)OC[C@H]1O[C@@H](n2cnc3c(N)ncnc32)[C@H](O)[C@@H]1OP(=O)(O)O)[C@@H](O)C(=O)NCCC(=O)NCCS; test: purified protein; settings: 2-methylbutyrate and ATP saturating, pH 7.5, 55 °C, apparent Km
[4] = substrate: CCC(=O)O; test: purified protein; settings: no CoA, ATP saturating, 55 °C, apparent Km
[5] = substrate: Nc1ncnc2c1ncn2[C@@H]1O[C@H](COP(=O)(O)OP(=O)(O)OP(=O)(O)O)[C@@H](O)[C@H]1O; test: purified protein; settings: 2-methylbutyrate and CoA saturating, pH 7.5, 55 °C, apparent Km
[6] = substrate: CC(C)(COP(=O)(O)OP(=O)(O)OC[C@H]1O[C@@H](n2cnc3c(N)ncnc32)[C@H](O)[C@@H]1OP(=O)(O)O)[C@@H](O)C(=O)NCCC(=O)NCCS; test: 2-methylbutyryl-CoA synthetase activity; assay type: biochemical, Methanosarcina acetivorans; settings: 2-methylbutyrate and ATP saturating, pH 7.5, 55 °C, apparent Km
Source text: 2-methylbutyryl-CoA synthetase activity on MacsMa

For `CC(C)(COP(=O)(O)OP(=O)(O)OC[C@H]1O[C@@H](n2cnc3c(N)ncnc32)[C@H](O)[C@@H]1O)[C@@H](O)C(=O)NCCC(=O)NCCS` [3′-dephospho CoA], the Km [1] was 2.16 ± 0.5 mM.

For `CC(C)(COP(=O)(O)OP(=O)(O)OC[C@H]1O[C@@H](n2cnc3c(N)ncnc32)[C@H](O)[C@@H]1OP(=O)(O)O)[C@@H](O)C(=O)NCCC(=O)NCCS` [CoA], the inhibition at 15000 µM [2] was roughly 40%.

B1: MacsMa (Methanosarcina acetivorans C2A) (protein)
chain: MTSLLSQFVSKTDFESYEDFQENFKILVPENFNFAYDVVDVYARDSPEKLAMIWCDDYGNEKIFTFKDLKYYSDKAANFFVKHGIGKGDYVMLTLKSRYDFWYCMLGLHKLGAIAVPATHMLKTRDIVYRIEKAGLKMIVCIAEDDVPEQVDEAHAECGDIPLKKAKVGGDVLEGWIDFRKELEESSPIFERPTGEVSTKNEDICLVYFSSGTAGFPKMVEHDNTYPLGHILTAKYWQNVEDDGLHYTVADSGWGKCVWGKLYGQWIAGCAVFVYDYDRFEAKNMLEKASKYGVTTFCAPPTIYRFLIKEDLSHYNFSTLKYAVVAGEPLNPEVFNRFLEFTGIKLMEGFGQTETVVTIATFPWMEPKPGSIGKPTPGYKIELMDRDGRLCEVGEEGEIVINTMEGKPVGLFVHYGKDPERTEETWHDGYYHTGDMAWMDEDGYLWFVGRADDIIKTSGYKVGPFEVESALIQHPAVLECAITGVPDPVRGQVIKATIVLTKDYTPSDSLKNELQDHVKNVTAPYKYPRIIEFVPELPKTISGKIRRVEIRDKDQSQ
Molecule B1 has a Km [3] of 4.09 ± 0.45 mM, a kcat [3] of 2.15 ± 0.1 s⁻¹ and a Km [4] of 29.10 ± 0.30 mM. The kcat [4] was 10.67 ± 1.34 s⁻¹ and the Km [5] was 4.21 ± 0.11 mM.

B2: MacsMa (Methanosarcina acetivorans C2A; G462A) (protein)
chain: B1 chain with G459A
notes: recombinant, E. coli Rosetta Blue (DE3) placI; His-Trap purified
For B2, the Km [6] was 2.09 ± 0.06 mM and the kcat [6] was 0.41 ± 0.01 s⁻¹.

B3: MacsMa (Methanosarcina acetivorans C2A; K464R) (protein)
chain: B1 chain with K461R
notes: as for B2
B3 showed a Km [6] of 1.38 ± 0.14 mM and a kcat [6] of 0.46 ± 0.1 s⁻¹.

B4: MacsMa (Methanosarcina acetivorans C2A; K522R) (protein)
chain: B1 chain with K519R
notes: as for B2
For B4, the Km [6] was 7.18 ± 0.29 mM and the kcat [6] was 1.07 ± 0.02 s⁻¹.

B5: MacsMa (Methanosarcina acetivorans C2A; K464A) (protein)
chain: B1 chain with K461A
notes: as for B2
B5 was tested, and the Km [6] was 2.19 ± 0.18 mM and the kcat [6] was 0.55 ± 0.03 s⁻¹.
